{"source": "the nanobody polyreactivity screen of Harvey et al. (2022)", "data": [{"experiment": "yeast display, Sf9 membrane polyspecificity reagent, FACS + sequencing; frameworks hold sequencing errors", "how_it_was_run": "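Genes from sorted yeast were amplified by colony PCR, read by MiSeq 2 × 250 sequencing and filtered on CDR length. These cells carried a synthetic nanobody library in Saccharomyces cerevisiae BJ5465 and were sorted by FACS into low and high (top ~1%) gates on anti-HA and streptavidin fluorescence. Polyreactivity is labelled according to the gate of origin.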", "values": [{"sequence": "QVQIVESGGGLVQAGGSLRLSCAASGRIFVYNAMGWYRQAPGKERELVAAISSTGSTNYADSVKGRFTISRDNAKNTVYLQMNSLKPEDTAVYYCAAVYYFYGFSGYYGQYDYWGQGSQVTVSS", "polyreactivity (PSR sort gate)": "low polyreactivity"}, {"sequence": "QVQIVESGGGLVQAGGSLRLSCAASGRIFYGYAMGWYRQAPGKEREFVARINVSGTSTFYADSVKGRFTISRDNAKNTVYLQMNSLKPEDTAVYYCAARGLPSNYYYYVHGYIMDYWGQGTQVTVSS", "polyreactivity (PSR sort gate)": "low polyreactivity"}, {"sequence": "QVQIVESGGGLVQAGGSLRLSCAASGRILEGYAMGWYRQAPGKERELVAAISFSTTTTYYADSVKGRFTISRDNAKNTVYLQMNSLKPEDTAVYYCAADSQQSDYDYWGQGTQVTVSS", "polyreactivity (PSR sort gate)": "high polyreactivity"}, {"sequence": "QVQIVESGGGLVQAGGSLRLSCAASGRSFYKYAMGWYRQAPGKERELVAAISKSGGRTYYADSVKGRFTISRDNAKNTVYLQMNSLKPEDTAVYYCAAEPFIPDQSRYYYWGQGTQVTVSS", "polyreactivity (PSR sort gate)": "high polyreactivity"}, {"sequence": "QVQIVESGGGLVQAGGSLRLSCAASGRTFNGYAMGWYRQAPGKERELVARITYRGGGTYYADSVKGRFTISRDNAKNTVYLQMNSLKPEDTAVYYCNAVYHSSGRMGYWGQGTQVTLSS", "polyreactivity (PSR sort gate)": "high polyreactivity"}, {"sequence": "QVQIVESGGGLVQAGGSLRLSCAASGRTFRTYAMGWSRPAPGKEREMVAAIRSNAGSTYYADSVKGRFTISRDNAKNTVYLQMHSLKPEDTAVYYCAKSYRSSRRYNYWGQGTQVTVSS", "polyreactivity (PSR sort gate)": "high polyreactivity"}, {"sequence": "QVQIVESGGGLVQAGGSLRLSCAASGRTFTHYAMGWYRQAPGKERELVAAISSGGGTYYADSVKGRFTIARDNAKKTVYLQMNSLKPEDTAVYYCNADYSNYLDPFRTYGYWGQGTQVTVSS", "polyreactivity (PSR sort gate)": "low polyreactivity"}, {"sequence": "QVQIVESGGGLVQAGGSLRLSCAASGRTLRYYSMGWYRQAPGKERELVAAISGSGGRTYYADSVKGRFTISRDNAKNTVYLQMNSLKPVDTAVYYCAKRYYRTAGDMDYWGLGTQVTVSS", "polyreactivity (PSR sort gate)": "high polyreactivity"}, {"sequence": "QVQIVESGGGLVQAGGSLRLSCAASGSIFGPYVMGWYRQAPGKERELVAAISKSRGSTYYADSVKGRFTISRDNAKNTVYLQMNSLKPEDTAVYYCATDYLGGGKRYYYWGQGTQVTVSS", "polyreactivity (PSR sort gate)": "high polyreactivity"}, {"sequence": "QVQIVESGGGLVQAGGSLRLSCAASGSIFGYAMGWYRPAPGKERELVAAISFSGVSTYYADSVKGRFTISRDNAKNTVYLQMNSLKPEDTAVYYCNAYSDGDEDYWGQGTQVTVSS", "polyreactivity (PSR sort gate)": "low polyreactivity"}, {"sequence": "QVQIVESGGGLVQAGGSLRLSCAASGSIFQFYAMGWSRQAPGKERELVAVITTSGVSTYYADSVKGRFTISRDNAKYTVYLQMNSLKPEDTAVYYCAADDYYLAGDYWGQGTQVTVSS", "polyreactivity (PSR sort gate)": "low polyreactivity"}, {"sequence": "QVQIVESGGGLVQAGGSLRLSCAASGSIFVVNAMGWYRQAPRKERELVAAIDWSGDTTYYADSEKGRFTISRDYAKNTVYFQMNSLKPEDTAVYYCAAEYEFHEYDYWGQGTQVTVSS", "polyreactivity (PSR sort gate)": "high polyreactivity"}, {"sequence": "QVQIVESGGGLVQAGGSLRLSCAASGSTFARNAMGWYRQAPGKEREFVASIRWGGVSTYYADSVKGRFTISRDNAKNTVYLQMNSLKPEDTAVYYCATGRKNAAQRWGYYYWGQGTQVTVSS", "polyreactivity (PSR sort gate)": "high polyreactivity"}, {"sequence": "QVQIVESGGGLVQAGGSLRLSCAASGSTFGGNAMGWYRQAPGKERDLVAVISKRGGSKYYADSVKGRFTISRDNAKNTVYLQMNSLKPEDTAVYYCAATYSRYWSPTYDYWGQGTQVNVSS", "polyreactivity (PSR sort gate)": "high polyreactivity"}, {"sequence": "QVQIVESGGGLVQAGGSLRLSCAASGSTFGRYAMGWYRQAPGKEREMVAAISASGGSTYYADSVKGRFTISRDYAKNTVYVQMNSLKPEDTAVYYCAALIDVITCQYDYWGHGTQVTVSS", "polyreactivity (PSR sort gate)": "high polyreactivity"}, {"sequence": "QVQIVESGGGLVQAGGSLRLSCAASGSTFRRYVMGWYRQAPGKERELVAAISWSGTSTNYADSLKGRFTISRDNAKNTVYLHMNSLKPEDTAVYYCATQSLYYRWGLDYCGQGTQVTVSS", "polyreactivity (PSR sort gate)": "high polyreactivity"}, {"sequence": "QVQIVESGGGLVQAGGSLRLSCAASGSTFTFYAMGSYRQAPGKERELVASITQSTGSTHYADSVKGRFTISRDNEKNTVFLQMNSLNPEDTAVYYCKAQKIVYYLVTLFPYYYWGQGSQVTVSS", "polyreactivity (PSR sort gate)": "low polyreactivity"}, {"sequence": "QVQIVESGGGLVQAGGSLRLSCAASGYIFPYYAMGWYRQAPGKERELVAGITTDGSSTYYADSVKGRFTISRDNAKNTVYLQMNSLNPEDTAVYYFYVYPGYTWGWYDYWGQGTQVTVSS", "polyreactivity (PSR sort gate)": "low polyreactivity"}, {"sequence": "QVQIVESGGGLVQAGGSLRLSCAASGYIFSVYAMGWYRQAPGKERELVAAITFRTGRTYYADSVKWRFTISRDNAKNTVYLQMNSLKPEDTAVSYCAADGYWTTFYNLYGYWGQGTQVTVSS", "polyreactivity (PSR sort gate)": "high polyreactivity"}, {"sequence": "QVQIVESGGGLVQAGGSLRLSCADSGRIFYLYDMGWYRQAPGKERELVATISCSGGSTYYADSVMGRFTISRDNAKNTVYLQMNSLKPEDTALYYCAAVSVSSWYDYWGQGTQVTVSS", "polyreactivity (PSR sort gate)": "low polyreactivity"}, {"sequence": "QVQIVESGGGLVQAGGSLRLSCASSGRIFHRYAMGWYRQAPGKERELVAAISYSTARTYYADSVKGRFTISRDNAKNTVYLQMNSLKPEDTAVYYCAAKDERRSFGMGYWGQGTQVTVSS", "polyreactivity (PSR sort gate)": "high polyreactivity"}, {"sequence": "QVQIVESGGGLVQAGGSLRLSCPASGGIFTKNAMGWYRQAPGKERELVAGISRTGGNTYYADSVKGRFTISRDNAKNNVYLQMKSLKPEDTAVYYCKALYGGPHRLRYDYWGQGTQVTVSS", "polyreactivity (PSR sort gate)": "low polyreactivity"}, {"sequence": "QVQIVESGGGLVQAGGSLRLSGAASGLIFKYYDMGWSRQAPGKERELVASISRSGGRTYYADSVMGRFTISRDNAMNTVYLQMNSLKPEDTAVYYCNADTWLYWDGDDYWGQGTQVTVSS", "polyreactivity (PSR sort gate)": "high polyreactivity"}, {"sequence": "QVQIVESGGGLVQAGGSLRLTCAASGFTFGPYAMGWYRQEPGKERELVAAITVNGSSTYADSVKGRFTISRDNAKNTVVLQMNSLKPEDTAVYYCAATVYPGGPYGGDSDYWGQGTQVTVSS", "polyreactivity (PSR sort gate)": "low polyreactivity"}, {"sequence": "QVQIVESGGGLVQAGGSLRLTCAASGLTFTGNAMGWYIQAPGKERELVAAISWSGGSKYYADSVKGRYTISRDNAKNTVYLQMNSLQPEDTAVYYCADPDARYDYWGQGTQVTVSS", "polyreactivity (PSR sort gate)": "high polyreactivity"}, {"sequence": "QVQIVESGGGLVQAGGTLRISCAASGFTLYYYAMGWSRQAPGKERELVAAITSSGTSTYYADSVKGRFTISRDNAKNTVYLQMNSLKPEDTAVYYCAAVSKIYHYRAVRLDDYWGQGTQVSVSS", "polyreactivity (PSR sort gate)": "low polyreactivity"}, {"sequence": "QVQIVESGGGLVQAGRSLRLSCAASGFIFFPYVMGWYRPAPVKERELVARITSGGGSTYYADSVKGRFSISRDNAKNTVYLEMYSLKPEDTAVYYCAARFRFPPSYDYWGQCTQVTVSS", "polyreactivity (PSR sort gate)": "high polyreactivity"}, {"sequence": "QVQIVESGGGLVQAGRSLRLSCAASGIIFRRYAMGWYRQAPGKETELVAAISSRGGSTYYADSVKGRFTISRDNAKNTVYLQMNSLKPEDTAVYYCAKGFSGTGGSGDFGYWGQGTQVTVSS", "polyreactivity (PSR sort gate)": "high polyreactivity"}, {"sequence": "QVQIVESGGGLVQAGRSLRLSCAASGRTFYRNAMGWYRQAPGKERELVAAITWRTGNTYFADSVKGRFTISRDNAKNTVYLQMNSLKQEDTAVYYCNRVPYYGHPFRVSGDYWGQCTQVTVSS", "polyreactivity (PSR sort gate)": "low polyreactivity"}, {"sequence": "QVQIVESGGGLVQAGRSLSLSCAASGYTFLPNVMGWYRQAPGKERELVAAIYSRGGRTYYADSVKGRFTISRDNAKNTVYLQMNSLKPEDTAVYYCAAYTRYTTGSAGIYRDDYWGQGTQVTVSS", "polyreactivity (PSR sort gate)": "high polyreactivity"}, {"sequence": "QVQIVESGGGLVQAGVSLRLSCAASGRTSDGYAMGWYRQAPGKESELVAGITEGGGDTYYADSVKGRFTISRDNAKNTVYLQMNSLKPEDTAVYYCNAVEGSRLPYDYWGQGTQVTVSS", "polyreactivity (PSR sort gate)": "low polyreactivity"}, {"sequence": "QVQIVESGGGLVQPGCSLRLSCAASGRIFYVYAMGWYRQAPGTEWELVASITNGGRTNYADSVKGRFTISRDNAKNTFYLQMNSLKPEDTAVYYCATAASNYLDYVGKYRYDYWVQGTQVTVSS", "polyreactivity (PSR sort gate)": "low polyreactivity"}, {"sequence": "QVQIVESGGGLVQSGGSLRLSCAASGIIFSSNAMGWYRQAPGKERELVAAISRRGGSTYYADSVKGRFTISRDKAKNTVYLQMNSLKPEDTAVYYFIALLYNVAGYDYWGQGTQVTVSS", "polyreactivity (PSR sort gate)": "high polyreactivity"}, {"sequence": "QVQIVESGGGVVQAGGSLRLSCAASGLIFPAYTMGWYRQAPGKERELVAAISRSGGSTYYADSVKGRFTISRDNAKNTVSLQMNSLNPEDTAVYYCAAQGYFVDRAGRYYRGDYWGQGTQVTVSS", "polyreactivity (PSR sort gate)": "high polyreactivity"}, {"sequence": "QVQIVESVGGLVQAGGSLRLSCAASGRTFPYYAKGRYRQAPGKEREMVATISTADSTYYADSVKGRFTISRDNAKNTVYLQMNRLITEATEVYYCAKDRYTYWSVHAFRRLDYWGQGTQLTVSS", "polyreactivity (PSR sort gate)": "low polyreactivity"}, {"sequence": "QVQLADSGGGLVQAGGSLRLICAASGSIIRNKAMGWYRQAPGKERELVAAITSTGTGTYYADSVKGRFTISRDYAKNTVYLQMNRVKPEDPAVYYCAVDDEFEFGYWGQGTQVTVSS", "polyreactivity (PSR sort gate)": "low polyreactivity"}, {"sequence": "QVQLAESGRGLVQAGGSLRLSCADSGIIYYFYAMGWYRQAPGKETEFVAAISGTGGRTYYADSVKGRFTISRDNAKNTVYLQMNSLKPEDTAVYYCNADDTPVPSIRFDYWGQGTQVTVSS", "polyreactivity (PSR sort gate)": "low polyreactivity"}, {"sequence": "QVQLAETGGGLVQAGGSLRLSCAASGSTFSVYAMGWYRQSPGKERELVATIPRGGSTYADSVKGRLTISRDNAKNTVYLQMNSLKPEDTAVYYCAADAYVSSQPMDYWGQGTQVTVSS", "polyreactivity (PSR sort gate)": "high polyreactivity"}, {"sequence": "QVQLEDSGGGLVQAGGSLRLSCAASGFTFYSNAMGWYRQAPGKERELVAAITRGGGSTYYADSVKGRFTISRDNAKNTVYLQMNSLKPEDTAVYYCAAEMFAPYRSTYDYWGQGTQVTVSS", "polyreactivity (PSR sort gate)": "low polyreactivity"}, {"sequence": "QVQLEEAGGGLVQAGGSLSLSCAASGSILKVYAMGWSRQAPGQERELVAGNTRAGGSTNDADSVKGRFTISRDYAKNTVLLQMNSLKPEDTPVYYCAGRLKCYRRRDYWGQGTQVSVSS", "polyreactivity (PSR sort gate)": "high polyreactivity"}, {"sequence": "QVQLEESAGGLVQAGGSLRLSCAASGRTFRRYAMGWYRPAPGKERELVAVISSGGRTNYADSVKGRFTISRDNAKNTVYLQLNSLKPEDTAVYYCNAGPLYSGVYSGYFWGQGTQVTVSS", "polyreactivity (PSR sort gate)": "high polyreactivity"}, {"sequence": "QVQLEESCGGLVQAGGSLRLSCAASGSTFTIYAMGWYRQAPGKERELVAVISSSGGSTYYADSVKGRFTISRDNAKNTVYLQMNSLKPEDTAVYYCAADTRYFGGYLTLYYWGQGTQVTVSS", "polyreactivity (PSR sort gate)": "low polyreactivity"}, {"sequence": "QVQLEESGAGLVQAGCSLRLSCAASGSTLFNNAMGWYRQAPGKERELVAAITFSGASTYYADSVKGRFTISRDNAKNTVYLQMNSLKPEDTAVYYCGADPSFNYIPVYYFDYDYWGQATQVTVSS", "polyreactivity (PSR sort gate)": "low polyreactivity"}]}]}
